Results reported in the supplement of paper PMC10724198.
± gives the standard deviation of the averaged measurements.

Test system: Saccharomyces cerevisiae
Assay: protein stability index of tFT-peptide fusion (C-terminal peptide) (PSI (0-1 scale)); higher = more stable (slower turnover)
Details: genetic background: wild type; temperature: 30 C
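Also: PSI is a weighted mean of sequencing reads over stability bins, variants kept only with over 10 reads, mCherry proximal and sfGFP distal, peptide attached via GGGS linker.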

Sequence	protein stability index
TVATTIRVTKVV	0.582 ± 0.022
TVFFVLGTESRV	0.664 ± 0.032
TVFPVLTTVEGL	0.688 ± 0.03
TVHTILYVPDEL	0.677 ± 0.021
TVIKMEKKKDGG	0.6691 ± 0.0047
TVKSCGRTLFSW	0.6874 ± 0.0051
TVLRPKERQEHN	0.721 ± 0.038
TVPLPPPPFLDS	0.772 ± 0.042
TVPNLTPALPPL	0.525 ± 0.11
TVRWRRGTGGAR	0.704 ± 0.019
TVTPAARTWHGR	0.67782 ± 0.00032
TVTPPAPCPPAG	0.709 ± 0.032
TWYYRYSCCQLP	0.696 ± 0.014
TYKEHNKTRETG	0.686 ± 0.076
TYLQYKQKMKKH	0.686 ± 0.15
TYSILLRVNCFK	0.601 ± 0.004
TYWAPPFPLSLP	0.52 ± 0.019
VACFLCTPKWFE	0.69 ± 0.057
VACIIIDFTRWY	0.536 ± 0.019
VAESGRGAGGDF	0.7314 ± 0.0029
VAFPRSSTLGPY	0.696 ± 0.027
VAGAGAGREAAY	0.616 ± 0.026
VAGLQGGSGEGG	0.576 ± 0.06
VAGTLPFMEFTS	0.722 ± 0.023
VAIGGGLGGDRC	0.719 ± 0.032
VALPPSHLSAFL	0.6887 ± 0.0039

Sequence	protein stability index
VALSLTSIFFMS	0.556 ± 0.041
VANGGVIVRGRC	0.668 ± 0.012
VAPAHPPHHRNL	0.6626 ± 0.0036
VAPPIPSKAGHL	0.753 ± 0.2
VAPPLAPSPPLP	0.6678 ± 0.0013
VAPPSSFPPPRL	0.726 ± 0.056
VASDGGYGYLRF	0.797 ± 0.077
VASLGFVGFCRF	0.713 ± 0.06
VAWAGRGPGRSG	0.713 ± 0.024
VAWCYCSGDTGV	0.7 ± 0.035
VAWYSLAEGCEG	0.641 ± 0.043
VCALGWWASWVW	0.5512 ± 0.0013
VCDGIIQGNGTI	0.705 ± 0.021
VCDLLLTLSFCV	0.587 ± 0.017
VCFCLGNVTMEF	0.732 ± 0.017
VCGRWVYPGGCR	0.61 ± 0.01
VCGWGFLLGVFV	0.5107 ± 0.0022
VCGYLSIVIWLR	0.423 ± 0.24
VCIGVGGGVLGL	0.6746 ± 0.0036
VCNLSRRGLCHG	0.584 ± 0.11
VCPRLISPLILL	0.584 ± 0.027
VCRADADRFVGL	0.71 ± 0.059
VCRCYILSFPQR	0.688 ± 0.028
VCRGAIPIERFR	0.715 ± 0.15
VCSEARRKSVAL	0.673 ± 0.02
VCVAACVGAHFA	0.656 ± 0.083

Sequence	protein stability index
VDASQTRYSRGS	0.73964 ± 0.00026
VDDIIGIRKRNT	0.691 ± 0.07
VDFGTLISEDRM	0.736 ± 0.036
VDFLLRDPPGPS	0.7201 ± 0.0065
VDGSYCGTLASY	0.6568 ± 0.0033
VDHRFLWALSSF	0.751 ± 0.043
VDRGGRVGERGR	0.597 ± 0.031
VDSAPRPPPEPC	0.649 ± 0.041
VDSSGSQPRGNR	0.648 ± 0.039
VDTNIRRTATYS	0.729 ± 0.066
VDTPPPHHSPLL	0.733 ± 0.068
VEGCVKGGCGGG	0.662 ± 0.052
VERSEGRLGVVG	0.686 ± 0.08
VESGVLCPGVGA	0.634 ± 0.02
VEVRRMCSGQLG	0.7136 ± 0.00096
VEWLGWFGISNK	0.76 ± 0.017
VFAGLHSLCFFF	0.641 ± 0.023
VFATRALSQRLI	0.526 ± 0.011
VFCGCGGCVSLG	0.655 ± 0.014
VFDIQLLDGGGP	0.685 ± 0.025
VFFPLFLNGSNV	0.695 ± 0.018
VFFRGVVVLLRL	0.472 ± 0.048
VFGCAGVGGDCG	0.67 ± 0.028
VFGRQVRVNGGS	0.707 ± 0.043
VFLGRWKFFFWG	0.619 ± 0.023
VFQVFSVGTCSG	0.6451 ± 0.0039

Sequence	protein stability index
VFRFGVCDDWCV	0.765 ± 0.018
VFRGGGAVGSVR	0.683 ± 0.043
VFRSRTSSLFTP	0.6794 ± 0.0058
VFVDGVSYGGLC	0.6811 ± 0.0058
VFVFRLYFCGCC	0.495 ± 0.015
VFVRSNSGACKN	0.682 ± 0.027
VGAGAGGVGWVL	0.749 ± 0.056
VGCLGYNSAGIN	0.6968 ± 0.0065
VGCPLSLDAPEG	0.687 ± 0.029
VGDGGGEVMGEA	0.677 ± 0.053
VGEAGTRASVPV	0.665 ± 0.12
VGELCGVGGRGG	0.68 ± 0.13
VGFCFDGVHFRA	0.639 ± 0.016
VGFFLGVLLSLL	0.521 ± 0.0085
VGFGLIVWSSGW	0.529 ± 0.0077
VGGAGDWRWGVW	0.805 ± 0.018
VGGAVDFSVFFC	0.585 ± 0.018
VGGCRLTRSSVW	0.688 ± 0.011
VGGDRVGPEPEC	0.718 ± 0.063
VGGEGKVVRGQE	0.6518 ± 0.00034
VGGGACVWSRRR	0.698 ± 0.05
VGGGWGGGVVLV	0.696 ± 0.0071
VGGLMVYTGDVA	0.704 ± 0.015
VGGRVCQSEGVE	0.685 ± 0.0058
VGGWGERGRGGS	0.696 ± 0.015
VGHRGVQAGGVG	0.618 ± 0.016

Sequence	protein stability index
VGKTVKQLSLIS	0.597 ± 0.039
VGLAVWAAKLGR	0.739 ± 0.018
VGLEVGPLVGGE	0.6921 ± 0.0029
VGLGLSVGKKEI	0.651 ± 0.098
VGLLWEYVRLDG	0.7079 ± 0.0036
VGLTGFQHTEWG	0.753 ± 0.027
VGMGRAPGPDPA	0.646 ± 0.0093
VGPGRRGWEGAP	0.663 ± 0.022
VGPPWSISLSII	0.636 ± 0.013
VGQVVTCFMSDA	0.678 ± 0.028
VGSCGGGKVVVE	0.6555 ± 0.00076
VGSDICLGLCLL	0.871 ± 0.02
VGSKGCDGCNRA	0.655 ± 0.047
VGTAVVDRHGVR	0.603 ± 0.045
VGTVREVYCQGG	0.678 ± 0.014
VGVFRCLPGQVG	0.677 ± 0.057
VGVGDGLIRRSS	0.7338 ± 0.004
VGVLCWLFLGVG	0.501 ± 0.008
VGVWDGCLLGLG	0.695 ± 0.028
VGWAVNGSMVVG	0.662 ± 0.021
VGWCPLVGGSGQ	0.753 ± 0.039
VGYGEVSGGGRM	0.732 ± 0.026
VHFSSSCDYLIV	0.653 ± 0.081
VHGGKREGGGEG	0.667 ± 0.039
VHRFPPAPFCTP	0.734 ± 0.047
VHRPFDGFSRAG	0.662 ± 0.011

Sequence	protein stability index
VHSMSRTFARPV	0.683 ± 0.051
VIASPALLLPLF	0.642 ± 0.062
VIDFAELGTVAH	0.7301 ± 0.005
VIDTGAGSILEI	0.7 ± 0.042
VIESRNEEGGRV	0.727 ± 0.022
VIFCFCSRSCFL	0.643 ± 0.037
VIGAGTGCVVVG	0.72 ± 0.013
VIMAEVLCVSNL	0.508 ± 0.0071
VIPREPSEPHTA	0.639 ± 0.021
VIVKNINKNTQI	0.717 ± 0.038
VKGKLGSGSYIH	0.644 ± 0.022
VKQFLICKNGRS	0.728 ± 0.12
VKSFRFPHPVWN	0.682 ± 0.011
VKWAIWGGMEWR	0.667 ± 0.07
VKWFRESRMVGA	0.65 ± 0.027
VLADIGSAGIGR	0.711 ± 0.014
VLCRSLAGCCFV	0.709 ± 0.012
VLFEARFSLRQS	0.6768 ± 0.0044
VLFPLPFPCVSF	0.681 ± 0.06
VLFPPGFPPGLL	0.817 ± 0.04
VLFPPLCLSFCF	0.498 ± 0.044
VLGASFTATYFQ	0.749 ± 0.077
VLGCSVIADSCR	0.637 ± 0.053
VLGDSASFWSCP	0.765 ± 0.15
VLGGGPSIRGLM	0.655 ± 0.027
VLGVGSFCLGVV	0.622 ± 0.018

Sequence	protein stability index
VLGWRLLPTAGI	0.703 ± 0.062
VLILDVSFPRCD	0.766 ± 0.18
VLLLLYGMFRGR	0.59 ± 0.0094
VLLPEPCALRFT	0.551 ± 0.029
VLLRHRPKYACR	0.645 ± 0.022
VLLRRRSIWPLG	0.72 ± 0.0063
VLLRVSEQVSRV	0.676 ± 0.1
VLRFATIKRMYP	0.661 ± 0.018
VLRPFTPPSSRF	0.723 ± 0.047
VLSISINRGVRI	0.664 ± 0.0039
VLSRVSMSLGSP	0.767 ± 0.16
VLTGLLFRRPRS	0.604 ± 0.0062
VLVEWQTCRTRK	0.656 ± 0.097
VLVGRAGIVFLG	0.573 ± 0.04
VLVVRERGAVDG	0.697 ± 0.1
VLWVLDAFCFGG	0.643 ± 0.0084
VMGGWGCGVLRG	0.731 ± 0.021
VMNHYCRFPVST	0.598 ± 0.023
VMRRYVFPSGFF	0.677 ± 0.023
VMWVGGAAGPVV	0.663 ± 0.037
VNELYDNETTYV	0.734 ± 0.035
VPAPLPRTSPPS	0.673 ± 0.053
VPAYLVAARQYY	0.655 ± 0.012
VPFRLFSSYLSG	0.641 ± 0.037
VPGYLLIDFWWV	0.5707 ± 0.001
VPHLPATPPAPP	0.646 ± 0.037

Sequence	protein stability index
VPLTKHENNFNE	0.709 ± 0.018
VPPASTSPGAFP	0.6889 ± 0.003
VPPLVPLHPPPP	0.709 ± 0.047
VPPPRYLPAFPA	0.694 ± 0.0078
VPPSCPRPPTAP	0.676 ± 0.064
VPQREWGGVRLG	0.675 ± 0.017
VPRMLSTPKAQP	0.723 ± 0.01
VPSRRLPLPPAS	0.695 ± 0.0086
VPVGSLLVGSVT	0.528 ± 0.012
VQASESGLRAGV	0.686 ± 0.0092
VQASFLPGGSVR	0.7062 ± 0.0039
VQGFYPVSAEGG	0.674 ± 0.022
VQVLLMFTWERE	0.511 ± 0.016
VRCAVVTMDLTL	0.691 ± 0.05
VRCCFGGRGAIA	0.6461 ± 0.0016
VRDVIGWGEEEY	0.708 ± 0.017
VREVTIGGGLGE	0.707 ± 0.0087
VRGTGRQLNKSM	0.662 ± 0.054
VRGVCLWGGVVG	0.641 ± 0.099
VRLELIRSKLSR	0.701 ± 0.022
